{"source": "paper PMC7308715", "target": "N-ribosyltransferase from Archaeoglobus veneficus SNP6 (AvNRT) (Archaeoglobus veneficus SNP6)", "assay": "AUC; sedimentation velocity; 20 mM Tris-HCl, pH 8, 20 °C, 50,000 x g; profiles recorded at 292 nm; c(s) analysis with SEDFIT", "data": [{"substance": "N-ribosyltransferase from Archaeoglobus veneficus SNP6 (AvNRT) (enzyme)", "values": [{"measurement": "stoichiometry N", "result": 4}]}]}
